Assay results as given in patent publication US20140134169A1, “Methods of Treating Ovarian Cancer with Dll4 Antagonists” (Regeneron Pharmaceuticals, Inc., priority 2012, published 2014).

Experiments:
human Dll4 = human Dll4 (human, UniProt Q9NR61 27-524, limits assumed); test: cell-based or functional assay
[1] = system: human HCT116 tumor cells (CRC); test: Growth of human HCT116 tumors in humanized Dll4 SCID mice (5-FU study); format: in vivo; settings: REGN421 2 mg/kg sc (6 mg/kg total)
Protocol: Each mouse was implanted subcutaneously (sc) with 5×10^6 human HCT116 tumor cells (CRC). […] The mice were then treated with hFc, REGN421, 5-FU or combination of REGN421 and 5-FU. A total of 30 mice were divided into 6 groups (n=5 per cohort). The first group was treated sc with hFc at 2 mg/kg; the second group was treated sc with REGN421 at 2 mg/kg; the third and fourth groups were treated ip with 5-FU at 15 and 25 mg/kg, respectively; the fifth group was treated sc with REGN421 at 2 mg/kg and ip with 5-FU at 15 mg/kg; and the sixth group was treated sc with REGN421 at 2 mg/kg and ip with 5-FU at 25 mg/kg. REGN421 was administered every 3-4 days starting on day 22 and mice received three doses total. 5-FU was administered every 3-4 days starting on day 22 and mice received three doses total.
To assess the effects of REGN421 and 5-FU as single agents or in combination, the changes in tumor size (volume) were measured, beginning three days before the initial REGN421 treatment, and then on the day of each agent treatment (days 22, 26, 29) and thereafter every 3-4 days until tumors reach ˜600 mm^3 in size. In vivo tumor size is calculated using the formula (length×width^2)/2 (FIG. 3 and Table 5).

[2] = Phase I pharmacokinetics, single 30-min IV infusion, ELISA; format: in vivo, human
Protocol: REGN421 is currently being studied in a first-in-human trial. The primary objective of the study is to determine the recommended dose of REGN421 for future efficacy trials. The secondary objectives are to characterize the drug safety profile, its pharmacokinetics, immunogenicity, and pharmacodynamics, as well as preliminary evidence of efficacy. In this study, anti-hDll4 antibody REGN421 is administered intravenously every 3 weeks to patients whose cancer has progressed on conventional therapy. The study design follows standard methodology for dose escalation and definition of dose-limiting toxicity. To date, 7 patients have been treated at 0.25 mg/kg/dose every three weeks, and 6 patients have been treated at 0.50 mg/kg/dose every three weeks. For the pharmacokinetic study, blood samples were taken at pre-dose, 0 hour, and post-dose 1, 2, 4 and 8 hours on Day 1, followed by Days 2, 3, 4, 8 and 15 of Cycle 1; and pre-dose, 0 hour on Day 1 of Cycles 2, and post-treatment follow-up on Days 15, 30 and 60. Plasma/serum levels of REGN421 in the samples are measured by ELISA with an upper limit of quantification of 2.5 μg/mL and a lower limit of quantification of 0.039 μg/mL in the undiluted serum sample. The study is ongoing with the intent to administer higher doses, defined in the protocol as 1, 2, 4, and 7 mg/kg/dose.
The currently available data showing plasma pharmacokinetic parameters following single 30-min. Cmax: Maximum serum concentration of the drug; Tlast: Time to the last quantifiable concentration of the drug; Clast: Last quantifiable concentration of the drug; AUClast: Area under curve up to the last concentration of the drug; AUC: Total area under the curve (i.e., drug exposure); t1/2Z: Terminal half life; Vss: Volume of distribution at steady state; CL: Drug clearance rate. Values are: mean, (CV %), and [range] (a: median [range]).

[3] = system: Hey-1 transcript (Dll4-notch signaling pathway); test: Hey-1 transcript in Phase I patient samples (microarray); format: in vivo, human; settings: all samples, 0.25 and 0.5 mg/kg
Protocol: The pharmacodynamic effect of REGN421 on the Dll4-notch signaling pathway has been analyzed using microarray technology on the patient serum samples collected prior to as well as 24 hours following REGN421 administration.

SKOV-3 cells = test: SKOV-3 ovarian xenograft (subcutaneous) tumor growth inhibition; format: in vivo, human; settings: Humanized Dll4 SCID mice; REGN421 2.5 mg/kg once weekly; 2.5 mg/kg
Protocol: Ovarian tumor xenograft cells were implanted into humanized Dll4 SCID mice or vendor SCID mice (i.e., SCID mice expressing native murine Dll4). After implantation, mice were treated with REGN421 (anti-human Dll4 antibody, binds to human Dll4), mDll4Ab1 (anti-murine Dll4 antibody, binds to murine Dll4), or a human Fc domain control protein. In one study, mice were treated with VEGF-Trap, mDll4Ab1 or VEGF-Trap plus mDll4Ab1. TOV-112D cells (5×10^6) were implanted subcutaneously into the right flank of humanized Dll4 (n=4) or vendor SCID mice (n=7). Treatment with REGN421 (2.5 mg/kg, 1×/week) or mDll4Ab1 (5 mg/kg, 1×/week) vs. hFc control was initiated one week after tumor cell implantation. Animals were treated for 2 to 3 weeks. A2780 cells (2×10^6) were implanted intraperitoneally into humanized Dll4 or vendor SCID mice (n=4-5). Treatment with REGN421 (2.5 mg/kg, 1×/week) or mDll4Ab1 (5 mg/kg, 1×/week) vs. hFc control was initiated one week after tumor cell implantation. For the A2780 combination study, simultaneous treatment with mDll4Ab1 (5 mg/kg, 1×/week) and VEGF-Trap (10 mg/kg, 2×/week) was initiated one week after tumor cell implantation. A VEGF-Trap single treatment arm was included in this study. Animals bearing A2780 tumors were treated for 4-5 weeks. […] Tumor growth inhibition (TGI) was measured as detailed above.

Chain of human Dll4 (Q9NR61 27-524 limits assumed): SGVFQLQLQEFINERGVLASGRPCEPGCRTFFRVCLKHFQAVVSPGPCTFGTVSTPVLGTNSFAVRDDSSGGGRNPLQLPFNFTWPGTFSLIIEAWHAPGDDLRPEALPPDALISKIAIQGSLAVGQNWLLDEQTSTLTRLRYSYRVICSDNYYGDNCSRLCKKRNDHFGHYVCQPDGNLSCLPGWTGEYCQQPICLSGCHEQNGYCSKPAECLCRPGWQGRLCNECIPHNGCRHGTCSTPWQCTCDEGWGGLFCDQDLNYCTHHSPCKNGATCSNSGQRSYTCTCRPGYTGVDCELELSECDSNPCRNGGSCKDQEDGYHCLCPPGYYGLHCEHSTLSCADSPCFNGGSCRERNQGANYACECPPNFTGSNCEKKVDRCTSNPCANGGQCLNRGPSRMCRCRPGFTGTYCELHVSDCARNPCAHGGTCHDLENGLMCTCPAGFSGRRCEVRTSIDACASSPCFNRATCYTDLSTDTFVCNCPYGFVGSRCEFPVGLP

B1: REGN421 (antibody, V domains shown)
VH: QVQLVESGGGVVQPGRSLRLSCAASGFTFSSYGMHWVRQAPGKGLEWVSFLWYDGTNKNYVESVKGRFTISRDNSKNMLYLEMNSLRAEDTAVYYCARDHDFRSGYEGWFDPWGQGTLVTVSS
VL: EIVLTQSPATLSLSPGERATLSCRASQSVSSYLAWYQQKPGQAPRLLIYDASNRATGIPARFSGSGSGTDFTLTISSLEPEDFAVYYCQHRSNWPPTFGGGTKVEIK
Hey-1 transcript Post-treatment vs. Pre-treatment ratio (patient 1, 0.25 mg/kg) (human Dll4): 0.52 ratio
Hey-1 transcript Post-treatment vs. Pre-treatment ratio (patient 2, 0.25 mg/kg) (human Dll4): 0.85 ratio
Hey-1 transcript Post-treatment vs. Pre-treatment ratio (patient 3, 0.25 mg/kg) (human Dll4): 0.77 ratio
Hey-1 transcript Post-treatment vs. Pre-treatment ratio (patient 4, 0.25 mg/kg) (human Dll4): 0.51 ratio
Hey-1 transcript Post-treatment vs. Pre-treatment ratio (patient 5, 0.25 mg/kg) (human Dll4): 0.61 ratio
Hey-1 transcript Post-treatment vs. Pre-treatment ratio (patient 6, 0.25 mg/kg) (human Dll4): 0.55 ratio
Hey-1 transcript Post-treatment vs. Pre-treatment ratio (patient 7, 0.25 mg/kg) (human Dll4): 0.75 ratio
Hey-1 transcript Post-treatment vs. Pre-treatment ratio (patient 8, 0.5 mg/kg) (human Dll4): 0.68 ratio
Hey-1 transcript Post-treatment vs. Pre-treatment ratio (patient 9, 0.5 mg/kg) (human Dll4): 0.82 ratio
TGD [1]: 6 days
TGI(%) at Day 39 [1]: 36.3%
AUC ([2]; 0.25 mg/kg IV, n = 7, mean): 489 µg·h/mL
AUClast ([2]; 0.25 mg/kg IV, n = 7, mean): 452 µg·h/mL
CL ([2]; 0.25 mg/kg IV, n = 7, mean): 0.0473 L/h
Cmax ([2]; 0.25 mg/kg IV, n = 7, mean): 6270 ng/mL
T1/2Z ([2]; 0.25 mg/kg IV, n = 7, mean): 47.1 h
Vss ([2]; 0.25 mg/kg IV, n = 7, mean): 2.85 L
Tlast ([2]; 0.25 mg/kg IV, n = 7, median): 170 h
AUC ([2]; 0.5 mg/kg IV, n = 2, mean): 963 µg·h/mL
AUClast ([2]; 0.5 mg/kg IV, n = 2, mean): 759 µg·h/mL
CL ([2]; 0.5 mg/kg IV, n = 2, mean): 0.0355 L/h
Clast ([2]; 0.5 mg/kg IV, n = 2, mean): 2240 ng/mL
Cmax ([2]; 0.5 mg/kg IV, n = 2, mean): 9880 ng/mL
T1/2Z ([2]; 0.5 mg/kg IV, n = 2, mean): 92.3 h
Vss ([2]; 0.5 mg/kg IV, n = 2, mean): 3.64 L
Tlast ([2]; 0.5 mg/kg IV, n = 2, median): 203 h
expression of the Hey-1 gene compared to pre-treatment samples [3]: reduced
% TGI (SKOV-3 cells): 61%
